In US8008074B2, “Compositions and methods for improving bone mass through modulation of receptors of PTH and fragments thereof” (The UAB Research Foundation, priority 2006, dated 2011):

Experiments:
PTH1R/LRP6 complex = PTH1R/LRP6 complex (Homo sapiens, UniProt Q03431); assay type: cell-based
LRP6 [1] = biological target: T1, LRP6 (Homo sapiens, UniProt O75581); assay: LRP6 phosphorylation at the PPPSP motif (Western blot); assay type: cell-based; conditions: without added GSK3β; data not shown
T1 construct: The cell lysates were immunoprecipitated for endogenous LRP6; endogenous in cells; host or cells: UMR-106
Method: (§1) UMR-106 cells were treated with either PTH or Wnt-3a. The cell lysates were immunoprecipitated for endogenous LRP6, and the precipitated immunocomplexes were detected by Western blotting with an antibody that specifically recognizes the phosphorylated PPPSP motifs (aa, 1490) (Tamai et al., 2004). […] To further confirm the role of PTH in inducing phosphorylation of LRP5 and LRP6 individually, HEK293 cells were transfected with HA-tagged LRP5, and the phosphorylated LRP5 was detected by Western blotting of the anti-HA immunoprecipitates with Ab1490.
(§2) If the observation is true, then the phosphorylated PPPSP motif will serve as an Axin docking site.

LRP6 [2] = biological target: T2, LRP6 (Rattus norvegicus, UniProt A0A0G2K0H3); assay: as above; assay type: cell-based; conditions: UMR-106 cells, endogenous LRP6; data not shown
T2 construct: The cell lysates were immunoprecipitated for endogenous LRP6; endogenous in cells; host or cells: UMR-106
Method: as §1, §2

MPK1, RANKL and OPG mRNA = assay: Real-Time PCR of PTH target genes in bone tissue of injected rats; assay type: in vivo, rat; conditions: rats injected with PTH (PTH (1-34))
Excerpt: Immunohistochemical staining of representative sections with antibody against β-catenin at 10× objective and 40× objective counterstained with hematoxylin from either primary spongliosa subjacent to the epiphyseal growth plates or Spongiosa subjacent to diaphyseal hematopoietic bone marrow of different time points after PTH single injection in rats. […] Each value is the mean±SEM of determinations in three independent slides of each animal and three animals of each group. Panels B and C show graphs of the expression of MPK1 mRNA and the ratio of RANKL/OPG as quantified by real-time PCR in cavaria tissue from the same animals. […] Panel D is a graph showing the numbers of β-catenin-positive osteoblasts as a percent of total osteoblasts per field that were determined. […]
It has been reported that intermittent PTH treatment targeted proliferating cells in the primary spongiosa of young rat distal femur metaphysis, resulting in an increased number of osteoblasts (Oniya, 1995, Bone). […] Quantitation of MPK1, RANKL, OPG, and GAPDH with specific primers was performed using a DNA Engine Opticon continuous fluorescence detection system (MJ Research, Logan, Utah) with SYBR Green I as the method of detection. […] Briefly, quantitative PCR was performed in a total reaction volume of 20 μl per […]. […]

LRP5 = biological target: T3, LRP5 (Homo sapiens, UniProt O75197); assay: LRP5 PPPSP phosphorylation in HEK293 cells (Ab1490 Western blot); assay type: cell-based; conditions: HEK293 cells transfected with HA-tagged LRP5; at 45 minutes; 5×10^−7 M PTH (1-84)
T3 construct: expressed in transfected cells; host or cells: HEK293
Method: HEK293 cells transfected with HA-tagged LRP5 were treated with conditioned medium containing Wnt-3a (lane 1), control medium with 5×10^−7 M PTH (1-84) for the indicated time periods (lane 3-5), or without PTH treatment (lane 2). Phosphorylated LRP5 was detected by Western blotting of the anti-HA immunoprecipitates with Ab1490, which specifically recognizes phosphorylated PPPSP sites within LRP5/6. […] VSVG-tagged LRP6 was cotransfected into HEK 293 cells with HA-Axin and GSK3β, and the cells were treated with or without 10^−7 M PTH (1-84) for the indicated time periods. The LRP6-associated Axin was determined by Western blotting of the anti-VSVG immunoprecipitates with anti-HA antibody. […] The LRP6-associated Axin was determined by Western blotting of the anti-VSVG immunoprecipitates with anti-HA antibody. […] The association of axin with wild type and mutant proteins was determined by Western blotting of the anti-VSVG immunoprecipitates with anti-HA antibody. […] Then luciferase activities were determined.
UMR-106 cells were treated with either PTH or Wnt-3a. The cell lysates were immunoprecipitated for endogenous LRP6, and the precipitated immunocomplexes were detected by Western blotting with an antibody that specifically recognizes the phosphorylated PPPSP motifs (aa, 1490) (Tamai et al., 2004). […]

T3 sequence (O75197 32-1615, species assumed): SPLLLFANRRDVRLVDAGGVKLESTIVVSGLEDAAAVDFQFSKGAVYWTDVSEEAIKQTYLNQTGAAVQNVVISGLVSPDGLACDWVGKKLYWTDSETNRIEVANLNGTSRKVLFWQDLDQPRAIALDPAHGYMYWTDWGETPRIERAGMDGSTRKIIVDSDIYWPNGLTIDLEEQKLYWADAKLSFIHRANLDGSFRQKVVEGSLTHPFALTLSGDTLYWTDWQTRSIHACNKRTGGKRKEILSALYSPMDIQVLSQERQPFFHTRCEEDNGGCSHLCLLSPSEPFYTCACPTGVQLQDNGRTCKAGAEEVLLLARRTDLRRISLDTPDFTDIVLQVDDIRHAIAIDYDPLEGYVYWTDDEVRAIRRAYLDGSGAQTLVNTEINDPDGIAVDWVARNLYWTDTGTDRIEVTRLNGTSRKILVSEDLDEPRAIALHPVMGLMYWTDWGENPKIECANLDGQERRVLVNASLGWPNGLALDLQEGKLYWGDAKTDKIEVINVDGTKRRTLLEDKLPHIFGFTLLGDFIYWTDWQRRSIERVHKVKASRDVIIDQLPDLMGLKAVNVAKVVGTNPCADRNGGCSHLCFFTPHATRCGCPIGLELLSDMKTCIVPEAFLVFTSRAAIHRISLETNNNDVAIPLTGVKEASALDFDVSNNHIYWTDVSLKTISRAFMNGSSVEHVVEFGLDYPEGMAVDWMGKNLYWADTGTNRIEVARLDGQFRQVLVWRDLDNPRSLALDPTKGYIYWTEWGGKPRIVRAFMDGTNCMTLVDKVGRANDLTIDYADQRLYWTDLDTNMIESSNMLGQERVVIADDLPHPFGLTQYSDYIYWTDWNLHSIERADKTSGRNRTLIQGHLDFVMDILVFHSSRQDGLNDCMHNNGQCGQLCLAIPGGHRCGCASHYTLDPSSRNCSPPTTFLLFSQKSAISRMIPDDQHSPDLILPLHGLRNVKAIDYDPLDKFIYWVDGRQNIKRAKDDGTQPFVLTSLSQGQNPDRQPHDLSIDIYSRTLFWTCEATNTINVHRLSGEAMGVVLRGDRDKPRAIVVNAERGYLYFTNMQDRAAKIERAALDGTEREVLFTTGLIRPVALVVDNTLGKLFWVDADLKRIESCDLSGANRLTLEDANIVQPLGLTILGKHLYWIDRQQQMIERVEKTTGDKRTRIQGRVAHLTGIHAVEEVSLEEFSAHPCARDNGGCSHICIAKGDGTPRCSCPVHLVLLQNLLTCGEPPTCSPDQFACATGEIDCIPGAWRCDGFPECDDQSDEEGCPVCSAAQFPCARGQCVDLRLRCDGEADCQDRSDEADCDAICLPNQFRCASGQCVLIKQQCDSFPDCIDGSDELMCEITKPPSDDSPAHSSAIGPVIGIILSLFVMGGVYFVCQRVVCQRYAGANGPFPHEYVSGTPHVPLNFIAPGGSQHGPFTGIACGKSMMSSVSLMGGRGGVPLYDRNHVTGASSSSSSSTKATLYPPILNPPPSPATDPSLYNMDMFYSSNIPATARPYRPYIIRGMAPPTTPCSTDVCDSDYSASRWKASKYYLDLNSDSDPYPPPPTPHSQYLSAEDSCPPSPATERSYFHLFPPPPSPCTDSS
T1 sequence (O75581 20-1613): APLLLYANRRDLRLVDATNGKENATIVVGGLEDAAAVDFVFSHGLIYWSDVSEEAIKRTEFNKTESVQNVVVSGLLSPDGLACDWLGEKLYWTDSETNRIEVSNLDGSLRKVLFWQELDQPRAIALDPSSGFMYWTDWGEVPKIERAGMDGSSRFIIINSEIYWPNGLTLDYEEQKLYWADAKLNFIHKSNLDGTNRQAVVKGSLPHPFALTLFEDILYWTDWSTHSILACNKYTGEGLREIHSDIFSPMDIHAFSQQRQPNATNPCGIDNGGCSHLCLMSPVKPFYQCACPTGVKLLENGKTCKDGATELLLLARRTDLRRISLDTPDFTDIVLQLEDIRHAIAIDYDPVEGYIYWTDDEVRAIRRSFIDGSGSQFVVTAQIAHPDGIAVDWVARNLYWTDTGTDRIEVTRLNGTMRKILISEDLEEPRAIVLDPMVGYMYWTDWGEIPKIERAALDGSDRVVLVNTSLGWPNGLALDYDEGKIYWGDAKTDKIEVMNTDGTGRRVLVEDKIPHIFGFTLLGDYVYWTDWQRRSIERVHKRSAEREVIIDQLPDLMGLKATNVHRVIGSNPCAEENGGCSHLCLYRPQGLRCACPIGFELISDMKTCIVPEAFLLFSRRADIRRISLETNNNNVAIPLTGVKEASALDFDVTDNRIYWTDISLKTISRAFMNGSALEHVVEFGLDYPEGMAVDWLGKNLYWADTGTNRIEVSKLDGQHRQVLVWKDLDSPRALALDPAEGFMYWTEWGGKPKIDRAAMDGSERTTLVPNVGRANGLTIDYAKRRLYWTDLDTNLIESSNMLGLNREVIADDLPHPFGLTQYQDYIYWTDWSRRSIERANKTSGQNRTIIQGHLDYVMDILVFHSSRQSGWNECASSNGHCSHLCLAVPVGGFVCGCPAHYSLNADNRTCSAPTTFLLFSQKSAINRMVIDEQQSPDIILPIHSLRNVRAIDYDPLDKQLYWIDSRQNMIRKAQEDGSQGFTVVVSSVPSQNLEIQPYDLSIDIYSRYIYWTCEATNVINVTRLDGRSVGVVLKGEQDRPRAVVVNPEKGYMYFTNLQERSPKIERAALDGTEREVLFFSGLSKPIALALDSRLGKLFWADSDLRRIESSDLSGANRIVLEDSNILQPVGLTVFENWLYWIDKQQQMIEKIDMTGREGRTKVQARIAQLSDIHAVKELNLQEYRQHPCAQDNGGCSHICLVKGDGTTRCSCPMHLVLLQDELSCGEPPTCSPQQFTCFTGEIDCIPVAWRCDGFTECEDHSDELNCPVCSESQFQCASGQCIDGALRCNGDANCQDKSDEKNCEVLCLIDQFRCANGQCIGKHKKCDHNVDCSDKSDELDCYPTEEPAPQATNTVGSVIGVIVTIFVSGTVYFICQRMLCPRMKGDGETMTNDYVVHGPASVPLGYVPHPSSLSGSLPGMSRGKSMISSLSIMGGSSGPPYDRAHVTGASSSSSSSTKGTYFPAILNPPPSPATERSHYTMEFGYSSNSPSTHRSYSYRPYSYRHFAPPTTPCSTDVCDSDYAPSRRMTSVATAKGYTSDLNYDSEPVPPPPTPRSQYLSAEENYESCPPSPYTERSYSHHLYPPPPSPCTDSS
T2 sequence (A0A0G2K0H3 20-1611): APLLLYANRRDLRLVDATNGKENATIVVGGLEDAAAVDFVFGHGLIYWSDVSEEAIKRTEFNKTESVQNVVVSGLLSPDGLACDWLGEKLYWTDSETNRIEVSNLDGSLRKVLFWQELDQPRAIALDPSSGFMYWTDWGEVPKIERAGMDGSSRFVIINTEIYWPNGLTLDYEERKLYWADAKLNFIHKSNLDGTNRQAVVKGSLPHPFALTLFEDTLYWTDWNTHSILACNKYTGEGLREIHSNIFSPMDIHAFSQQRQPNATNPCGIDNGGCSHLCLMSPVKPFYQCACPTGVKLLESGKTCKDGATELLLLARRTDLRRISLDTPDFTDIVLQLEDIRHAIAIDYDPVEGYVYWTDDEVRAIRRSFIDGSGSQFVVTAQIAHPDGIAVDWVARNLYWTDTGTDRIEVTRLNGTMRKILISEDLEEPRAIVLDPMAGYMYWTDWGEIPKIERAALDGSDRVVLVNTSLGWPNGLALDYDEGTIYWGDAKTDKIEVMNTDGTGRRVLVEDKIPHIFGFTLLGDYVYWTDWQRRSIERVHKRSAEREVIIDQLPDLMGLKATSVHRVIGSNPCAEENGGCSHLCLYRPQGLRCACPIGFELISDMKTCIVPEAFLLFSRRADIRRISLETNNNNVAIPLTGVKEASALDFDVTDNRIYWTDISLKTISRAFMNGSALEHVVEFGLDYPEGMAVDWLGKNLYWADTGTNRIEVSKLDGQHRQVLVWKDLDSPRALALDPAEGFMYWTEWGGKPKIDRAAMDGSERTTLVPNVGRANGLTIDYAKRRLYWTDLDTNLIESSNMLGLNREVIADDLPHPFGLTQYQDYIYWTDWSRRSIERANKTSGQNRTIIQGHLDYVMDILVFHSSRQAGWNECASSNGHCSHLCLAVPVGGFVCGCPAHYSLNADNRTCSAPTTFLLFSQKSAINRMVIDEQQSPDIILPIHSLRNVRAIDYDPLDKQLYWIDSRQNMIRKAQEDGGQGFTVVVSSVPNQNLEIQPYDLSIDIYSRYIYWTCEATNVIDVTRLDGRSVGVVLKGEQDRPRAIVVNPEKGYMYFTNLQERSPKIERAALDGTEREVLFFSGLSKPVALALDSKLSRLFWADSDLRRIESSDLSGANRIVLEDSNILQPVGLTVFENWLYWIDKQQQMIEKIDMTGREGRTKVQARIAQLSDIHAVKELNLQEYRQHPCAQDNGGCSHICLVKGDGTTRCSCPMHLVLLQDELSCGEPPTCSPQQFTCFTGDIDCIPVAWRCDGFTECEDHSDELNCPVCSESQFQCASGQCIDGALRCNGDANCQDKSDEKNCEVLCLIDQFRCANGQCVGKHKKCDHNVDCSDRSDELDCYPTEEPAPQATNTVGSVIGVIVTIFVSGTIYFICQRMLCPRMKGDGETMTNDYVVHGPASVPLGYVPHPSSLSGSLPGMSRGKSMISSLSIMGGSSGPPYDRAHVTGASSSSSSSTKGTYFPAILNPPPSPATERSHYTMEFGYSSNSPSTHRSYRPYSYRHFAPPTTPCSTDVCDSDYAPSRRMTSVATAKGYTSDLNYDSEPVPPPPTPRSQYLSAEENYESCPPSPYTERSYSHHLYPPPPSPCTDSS

**Q.** “PTH: Parathyroid hormone ligand, form not stated at the place; figure legends give PTH (1-84) or PTH (1-34)” was tested. Which “enhancement of interaction of PTH1R with LRP6N or LRP6” value (PTH1R/LRP6 complex) did it give?
**A.** did not enhance the interaction of PTH1R with LRP6N or LRP6

**Q.** What about the “LRP6-associated PTH ligand (anti-VSVG immunoprecipitates, anti-PTH blot)” value (PTH1R/LRP6 complex; HEK 293 cells, 5×10^−7 M PTH (1-84) for 1 hour) of the same substance?
**A.** immunoprecipitated only when both LRP6 and PTH1R were cotransfected

**Q.** And the “phosphorylation of LRP6, PTH alone” value (LRP6 [1])?
**A.** much weaker stimulation

**Q.** And the “LRP6 phosphorylation at the PPPSP motif” value (LRP6 [2])?
**A.** rapidly induced LRP6 phosphorylation at the PPPSP motif

**Q.** What about the “MPK1 mRNA expression” value (MPK1, RANKL and OPG mRNA) of the same substance?
**A.** stimulated MPK1 mRNA expression

**Q.** What about the “ratio of RANKL/OPG” value (MPK1, RANKL and OPG mRNA) of the same substance?
**A.** increased

**Q.** What about the “LRP5 phosphorylation (PPPSP)” value (LRP5) of the same substance?
**A.** dramatically stimulated LRP5 phosphorylation
